This is an account of results in the supplement of paper PMC9233669.

This sample holds only a part of the variants without activity.

For one data set, the system named is biotinyl-Ile-oxazolone. Briefly: self-aminoacylation, catalytic enhancement (BIO) (fold over background); higher = more active; k-Seq, kA / k0A0; sequences stand for … in GGGAAUGGAUCCACAUCUACGAAUUC…UUCACUGCAGACUUGACGAAGCUG
The method, boiled down:
(§1)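 Each biotinyl-aminoacyl-oxazolone, at 2–1250 μM, was incubated with mutagenized RNA pools (0.43 μM) carrying a 21-nt variable region. The 50 μL reactions contained HEPES/NaCl/KCl/MgCl2/CaCl2 buffer with 5% acetonitrile at pH 6.9–7.0 and ran for 90 minutes at room temperature. After streptavidin capture, RNA was measured by qPCR in triplicate and by Illumina sequencing, and catalytic enhancement was calculated as median kA over the uncatalyzed rate from a pseudo-first-order fit of per-sequence fraction reacted.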

For a further data set, the system named is biotinyl-Phe-oxazolone. In words: self-aminoacylation, catalytic enhancement (BFO) (fold over background); higher = more active; k-Seq, kA / k0A0; sequences stand for … in GGGAAUGGAUCCACAUCUACGAAUUC…UUCACUGCAGACUUGACGAAGCUG
A digest of the protocol: as §1

For a further data set, the system named is biotinyl-Trp-oxazolone. Briefly: self-aminoacylation, catalytic enhancement (BWO) (fold over background); higher = more active; k-Seq, kA / k0A0; sequences stand for … in GGGAAUGGAUCCACAUCUACGAAUUC…UUCACUGCAGACUUGACGAAGCUG
A digest of the protocol: as §1

For another data set, the system named is biotinyl-Leu-oxazolone. Briefly: self-aminoacylation, catalytic enhancement (BLO) (fold over background); higher = more active; k-Seq, kA / k0A0; sequences stand for … in GGGAAUGGAUCCACAUCUACGAAUUC…UUCACUGCAGACUUGACGAAGCUG
The method, boiled down: as §1

The next data set relates to biotinyl-Met-oxazolone. In words: self-aminoacylation, catalytic enhancement (BMO) (fold over background); higher = more active; k-Seq, kA / k0A0; sequences stand for … in GGGAAUGGAUCCACAUCUACGAAUUC…UUCACUGCAGACUUGACGAAGCUG
A digest of the protocol:
as §1

The next data set has as its system biotinyl-Val-oxazolone. Briefly: self-aminoacylation, catalytic enhancement (BVO) (fold over background); higher = more active; k-Seq, kA / k0A0; sequences stand for … in GGGAAUGGAUCCACAUCUACGAAUUC…UUCACUGCAGACUUGACGAAGCUG
The method, boiled down: as §1

Regarding “UUUGCCCUGGUCAUCGAGUGA [Fam2.1 aminoacylation ribozyme variant]”, the self-aminoacylation was determined as 16.5 with biotinyl-Ile-oxazolone; 294 in the data set on biotinyl-Phe-oxazolone; 46.1 with biotinyl-Trp-oxazolone; 41 in the data set with biotinyl-Leu-oxazolone; 45.5 with biotinyl-Met-oxazolone; 18.1 in the data set on biotinyl-Val-oxazolone.
With “GUUACCAUGGUCAUCGAGUGA [Fam2.1 aminoacylation ribozyme variant]”, the self-aminoacylation in the data set with biotinyl-Ile-oxazolone is 5.01; in the data set with biotinyl-Phe-oxazolone it was 28.3; in the data set on biotinyl-Trp-oxazolone it was 10.3; in the data set with biotinyl-Leu-oxazolone it was 9.59; in the data set with biotinyl-Met-oxazolone, 8.11; in the data set on biotinyl-Val-oxazolone, 5.22.
Turning to “CUACUUCAAACACGCGGUCUG [Fam1A.1 aminoacylation ribozyme variant]”, the self-aminoacylation in the data set on biotinyl-Ile-oxazolone is 1.61; with biotinyl-Phe-oxazolone, 0.711; in the data set with biotinyl-Trp-oxazolone, 1.74; in the data set with biotinyl-Leu-oxazolone it was 1.42; in the data set with biotinyl-Met-oxazolone, 1.64; in the data set with biotinyl-Val-oxazolone, 1.36.
As for “GCAAACUUCAAGCAAUCGGUC [Fam1B.1 aminoacylation ribozyme variant]”, the self-aminoacylation with biotinyl-Ile-oxazolone turned out to be 2.13; with biotinyl-Phe-oxazolone, 21.7; in the data set with biotinyl-Trp-oxazolone, 19.5; with biotinyl-Leu-oxazolone, 2.47; in the data set on biotinyl-Met-oxazolone it was 2.05; in the data set on biotinyl-Val-oxazolone, 2.17.
As to “CUACUCCAACCAAUCGGUCUG [Fam1A.1 aminoacylation ribozyme variant]”, the self-aminoacylation in the data set with biotinyl-Ile-oxazolone is 0.623; in the data set with biotinyl-Phe-oxazolone, 0.726; in the data set with biotinyl-Trp-oxazolone, 0.879; in the data set with biotinyl-Leu-oxazolone it was 0.855; in the data set with biotinyl-Met-oxazolone it was 0.74; with biotinyl-Val-oxazolone it was 0.706.
As to “AUUCACCUAUGCCAUCGGGUG [Fam2.2 aminoacylation ribozyme variant]”, the self-aminoacylation in the data set with biotinyl-Ile-oxazolone was 1.5; in the data set on biotinyl-Phe-oxazolone, 18.9; in the data set with biotinyl-Trp-oxazolone it was 3.42; in the data set on biotinyl-Leu-oxazolone, 3.21; in the data set on biotinyl-Met-oxazolone it was 2.85; with biotinyl-Val-oxazolone, 1.98.
“GCACACUUCAAGCCAUCGGUC [Fam1B.1 aminoacylation ribozyme variant]”: the self-aminoacylation with biotinyl-Ile-oxazolone worked out at 2.81; with biotinyl-Phe-oxazolone, 8.33; in the data set on biotinyl-Trp-oxazolone, 3.87; in the data set on biotinyl-Leu-oxazolone, 2.81; in the data set on biotinyl-Met-oxazolone, 2.32; in the data set on biotinyl-Val-oxazolone, 2.57.
In the case of “AUUCACCUACGUCAUAGGGUG [Fam2.2 aminoacylation ribozyme variant]”, the self-aminoacylation in the data set on biotinyl-Ile-oxazolone was 0.915; in the data set with biotinyl-Phe-oxazolone, 0.864; in the data set with biotinyl-Trp-oxazolone it was 0.634; in the data set with biotinyl-Leu-oxazolone it was 1.02; with biotinyl-Met-oxazolone, 1.34; in the data set with biotinyl-Val-oxazolone, 0.933.
As for “AAUUUUGCUAAUUGUCGCAAG [Fam3.1 aminoacylation ribozyme variant]”, the self-aminoacylation is 2.45 in the data set with biotinyl-Ile-oxazolone; 2.61 in the data set on biotinyl-Phe-oxazolone; 2.21 in the data set on biotinyl-Trp-oxazolone; 2.13 in the data set with biotinyl-Leu-oxazolone; 1.92 with biotinyl-Met-oxazolone; 1.73 with biotinyl-Val-oxazolone.
With “CUACUUCCAACAAUGGGUCUG [Fam1A.1 aminoacylation ribozyme variant]”, the self-aminoacylation is 0.951 in the data set on biotinyl-Ile-oxazolone; 0.635 with biotinyl-Phe-oxazolone; 0.789 in the data set on biotinyl-Trp-oxazolone; 0.795 in the data set on biotinyl-Leu-oxazolone; 0.932 in the data set with biotinyl-Met-oxazolone; 0.835 in the data set on biotinyl-Val-oxazolone.
As to “AAGUGUACUAAUAGUCGCAAG [Fam3.1 aminoacylation ribozyme variant]”, the self-aminoacylation was 1.4 in the data set on biotinyl-Ile-oxazolone; 1.74 with biotinyl-Phe-oxazolone; 1.2 in the data set on biotinyl-Trp-oxazolone; 1.2 in the data set on biotinyl-Leu-oxazolone; 1.17 with biotinyl-Met-oxazolone; 1.51 with biotinyl-Val-oxazolone.
Consider “AUUCACGUAGGUCAACGGGUG [Fam2.2 aminoacylation ribozyme variant]”, for which the self-aminoacylation with biotinyl-Ile-oxazolone was 2.77; in the data set with biotinyl-Phe-oxazolone it was 21.1; with biotinyl-Trp-oxazolone it was 4.47; in the data set with biotinyl-Leu-oxazolone, 4.96; with biotinyl-Met-oxazolone, 3.95; in the data set with biotinyl-Val-oxazolone, 3.15.
Regarding “AAUCACCUAGGUCCUCGGGUG [Fam2.2 aminoacylation ribozyme variant]”, the self-aminoacylation was found to be 3.74 in the data set with biotinyl-Ile-oxazolone; 19.7 in the data set on biotinyl-Phe-oxazolone; 5.34 with biotinyl-Trp-oxazolone; 5.07 in the data set on biotinyl-Leu-oxazolone; 3.73 in the data set on biotinyl-Met-oxazolone; 3.29 in the data set with biotinyl-Val-oxazolone.
Regarding “AAGUUCGCUAAUAGCCGCAAG [Fam3.1 aminoacylation ribozyme variant]”, the self-aminoacylation turned out to be 1.35 with biotinyl-Ile-oxazolone; 1.97 with biotinyl-Phe-oxazolone; 1.75 with biotinyl-Trp-oxazolone; 1.38 in the data set with biotinyl-Leu-oxazolone; 1.82 in the data set on biotinyl-Met-oxazolone; 1.12 in the data set with biotinyl-Val-oxazolone.
Regarding “AAGUUCGCUAAUAGUCGCUAG [Fam3.1 aminoacylation ribozyme variant]”, the self-aminoacylation stood at 1.48 in the data set on biotinyl-Ile-oxazolone; 1.34 in the data set with biotinyl-Phe-oxazolone; 1.45 in the data set with biotinyl-Trp-oxazolone; 1.47 in the data set on biotinyl-Leu-oxazolone; 1.53 in the data set on biotinyl-Met-oxazolone; 1.4 in the data set on biotinyl-Val-oxazolone.
As for “CUACUGCAUACAAUCGGUCUG [Fam1A.1 aminoacylation ribozyme variant]”, the self-aminoacylation with biotinyl-Ile-oxazolone worked out at 0.677; in the data set on biotinyl-Phe-oxazolone it was 0.959; with biotinyl-Trp-oxazolone, 0.659; in the data set with biotinyl-Leu-oxazolone it was 0.577; in the data set on biotinyl-Met-oxazolone, 0.612; with biotinyl-Val-oxazolone it was 0.643.
For the sequence “AGUACCCUAGUCAUCGAGUGA [Fam2.1 aminoacylation ribozyme variant]”, the self-aminoacylation is 3.2 in the data set on biotinyl-Ile-oxazolone; 24.6 with biotinyl-Phe-oxazolone; 6.29 in the data set with biotinyl-Trp-oxazolone; 4.92 with biotinyl-Leu-oxazolone; 4.86 in the data set with biotinyl-Met-oxazolone; 3.13 in the data set on biotinyl-Val-oxazolone.
For “AUUACCCUGGACAUUGAGUGA [Fam2.1 aminoacylation ribozyme variant]”, the self-aminoacylation in the data set on biotinyl-Ile-oxazolone was determined as 4.56; in the data set on biotinyl-Phe-oxazolone it was 69.4; in the data set with biotinyl-Trp-oxazolone, 13.4; in the data set on biotinyl-Leu-oxazolone it was 10.4; in the data set with biotinyl-Met-oxazolone, 11.3; in the data set with biotinyl-Val-oxazolone, 4.58.
In the case of “AUUCAGCCAGGUCAUCGGGUG [Fam2.2 aminoacylation ribozyme variant]”, the self-aminoacylation in the data set with biotinyl-Ile-oxazolone was determined as 5.25; in the data set on biotinyl-Phe-oxazolone it was 59.7; with biotinyl-Trp-oxazolone it was 9.91; in the data set with biotinyl-Leu-oxazolone it was 10.7; in the data set on biotinyl-Met-oxazolone, 8.99; in the data set with biotinyl-Val-oxazolone, 5.4.
Take “AUUCAACUAGGUCUUCGGGUG [Fam2.2 aminoacylation ribozyme variant]”: the self-aminoacylation was 2.93 with biotinyl-Ile-oxazolone; 29.8 with biotinyl-Phe-oxazolone; 4.34 in the data set on biotinyl-Trp-oxazolone; 4.84 in the data set on biotinyl-Leu-oxazolone; 4.21 in the data set on biotinyl-Met-oxazolone; 3.01 with biotinyl-Val-oxazolone.
On to “AUUACCCUGGUUAUAGAGUGA [Fam2.1 aminoacylation ribozyme variant]”, for which the self-aminoacylation in the data set on biotinyl-Ile-oxazolone was found to be 6.6; with biotinyl-Phe-oxazolone, 117; in the data set with biotinyl-Trp-oxazolone it was 19.1; in the data set with biotinyl-Leu-oxazolone it was 16; in the data set with biotinyl-Met-oxazolone it was 16.7; in the data set with biotinyl-Val-oxazolone it was 6.47.
